From patent publication US20260258084A1, “New Peptides as Selective IL-23 Receptor Antagonists” (Sanofi, priority 2022, published 2026) come the findings set out here.

Starred links: 1 amine or outer side, 2 acyl side, 3 side chain; linkers in the order of their positions; H or OH if unused. Positions of bridges follow the written chain, without caps; N, C: chain ends. Non-standard residues stand in square brackets, D forms with d. No end group written: not given here. Yde = (2S)-2-amino-3-[4-[2-(dimethylamino)ethoxy]phenyl]propanoic acid, CN(C)CCOc1ccc(C[C@H](N[*:1])C(=O)[*:2])cc1; Trp(7-Me) = Cc1cccc2c(C[C@H](N)C(=O)O)c[nH]c12; αMeLys(Me2) = CN(C)CCCC[C@](C)(N)C(=O)O; 2Nal = N[C@@H](Cc1ccc2ccccc2c1)C(=O)O; εLys = N[C@@H](CCCCN[*:1])C(=O)[*:2]; 3Pal = N[C@@H](Cc1cccnc1)C(=O)O; Dad = desamino-aspartamic acid; Lys(Me) = CNCCCC[C@H](N)C(=O)O; αMeL = CC(C)C[C@](C)(N)C(=O)O; Aib = CC(C)(N)C(=O)O; Sar = CNCC(=O)O

This experiment concerns the target T1, IL-23 receptor on the surface of HEK-Blue IL-23 cells (UniProt Q5VWK5 24-629, limits assumed).
T1 sequence (looked up): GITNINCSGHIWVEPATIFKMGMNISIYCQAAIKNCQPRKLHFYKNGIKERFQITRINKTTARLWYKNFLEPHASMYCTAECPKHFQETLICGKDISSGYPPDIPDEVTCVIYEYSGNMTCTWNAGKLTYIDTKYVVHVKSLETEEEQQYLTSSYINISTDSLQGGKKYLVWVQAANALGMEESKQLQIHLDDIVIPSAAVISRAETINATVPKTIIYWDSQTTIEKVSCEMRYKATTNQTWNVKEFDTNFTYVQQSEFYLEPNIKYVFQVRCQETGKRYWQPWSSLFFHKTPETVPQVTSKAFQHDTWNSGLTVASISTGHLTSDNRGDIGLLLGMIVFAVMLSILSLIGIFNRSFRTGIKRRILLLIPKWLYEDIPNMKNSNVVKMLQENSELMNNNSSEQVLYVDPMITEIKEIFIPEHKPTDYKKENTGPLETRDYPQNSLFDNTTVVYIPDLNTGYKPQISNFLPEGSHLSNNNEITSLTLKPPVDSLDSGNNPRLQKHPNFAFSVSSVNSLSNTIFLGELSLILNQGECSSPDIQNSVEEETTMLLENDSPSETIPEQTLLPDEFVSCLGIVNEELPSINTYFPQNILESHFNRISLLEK
Briefly: cell-based or functional assay.

B1: Compound of SEQ ID NO: 157 (peptide)
peptide: [Dad]CNT[Trp(7-Me)]K(Ac)C[Yde][2Nal][Aib]KN[3Pal][Sar]-NH2
modifications: lactam (positions not given here); disulfide 2-7; not fully specified (bridges); printed as Dad(§1)-C(@2)-N-T-Wim-K[Ac]-C(@2)-Yde-Nal-Aib-K(§1)-N-Pal-Sar-NH2
Regarding B1, the “pSTAT3 (nM)” value turned out to be 0.06 nM.

B2: Compound of SEQ ID NO: 155 (peptide)
peptide: [Dad]CNT[Trp(7-Me)]LC[Yde][2Nal][αMeLys(Me2)]KA[3Pal][Sar]-NH2
modifications: lactam (positions not given here); disulfide 2-7; not fully specified (bridges); printed as Dad(§1)-C(@2)-N-T-Wim-L-C(@2)-Yde-Nal-MKdm-K(§1)-A-Pal-Sar-NH2
With B2, the “pSTAT3 (nM)” value came out at 0.1 nM.

B3: Compound of SEQ ID NO: 156 (peptide)
peptide: [Dad]CNT[Trp(7-Me)]K(Ac)C[Yde][2Nal][αMeLys(Me2)][Lys(Me)]N[3Pal][Sar]-NH2
modifications: lactam (positions not given here); disulfide 2-7; not fully specified (bridges); printed as Dad(§1)-C(@2)-N-T-Wim-K[Ac]-C(@2)-Yde-Nal-MKdm-Kme(§1)-N-Pal-Sar-NH2
As to B3, the “pSTAT3 (nM)” value stood at 0.08 nM.

B4: Compound of SEQ ID NO: 151 (peptide)
peptide: [Dad]CNT[Trp(7-Me)]K(Ac)C[Yde][2Nal][αMeLys(Me2)]KN[3Pal][Sar]-NH2
modifications: lactam (positions not given here); disulfide 2-7; not fully specified (bridges); printed as Dad(§1)-C(@2)-N-T-Wim-K[Ac]-C(@2)-Yde-Nal-MKdm-K(§1)-N-Pal-Sar-NH2
For B4, the “pSTAT3 (nM)” value turned out to be 0.06 nM.

B5: Compound of SEQ ID NO: 154 (peptide)
peptide: [Dad]CNT[Trp(7-Me)]LC[Yde][2Nal][αMeLys(Me2)]KN[3Pal][Sar]-NH2
modifications: lactam (positions not given here); disulfide 2-7; not fully specified (bridges); printed as Dad(§1)-C(@2)-N-T-Wim-L-C(@2)-Yde-Nal-MKdm-K(§1)-N-Pal-Sar-NH2
For B5, the “pSTAT3 (nM)” value amounted to 0.08 nM.
Take XCNTWQCXXXDNG (not fully specified; Ahx(§1)-C(@2)-N-T-W-Q-C(@2)-Yae-Nal-Aib-D(§1)-N-G-NH2) [Compound of SEQ ID NO: 9]: the “pSTAT3 (nM)” value worked out at 65 nM.

B6: Compound of SEQ ID NO: 158 (peptide)
peptide: [Dad]C[εLys][Trp(7-Me)]LC[Yde][2Nal][αMeL]KN[3Pal][Sar]-NH2
modifications: disulfide 2-6; lactam 1-10; also: K3 acetylated (K[aAc]), acetyl site not given here, ε-NH2 takes the Cys2 bond
In the case of B6, the “pSTAT3 (nM)” value was found to be 0.39 nM.
